The target of test [1] is human TIGIT on cells (human) (UniProt Q495A1). Kind of test: flow cytometry on CHO-huTIGIT cells. A general note: A flow cytometer gives signals particle by particle.
For test [2], the target named is cynomolgus TIGIT on cells (cynomolgus monkey). Kind of test: flow cytometry on CHO-cynoTIGIT cells.
Test [3] addresses cynomolgus TIGIT-his protein (cynomolgus monkey). Kind of test: BLI (ForteBio), IgG on AHQ sensor, 100 nM TIGIT-his, monovalent, 1:1 model. In general terms: BLI is a label-free optical method that tracks binding on a fibre tip over time.
In test [4] the target is human TIGIT-his protein (human) (UniProt Q495A1). The description is as above.
In test [5] the target is human TIGIT on cells (human) (UniProt Q495A1). Kind of test: flow cytometry, blocking of human CD155-mouse IgG2a Fc (2 ug/mL) binding to CHO-huTIGIT cells.
For test [6] the target is unchanged. Kind of test: flow cytometry on activated human primary T cells (CD3/CD28 beads + IL-2, 48 h), fluorescent secondary antibody; y axis Positive cells(%), x axis Concentration(nM); EC50 from the table drawn under the curves.

human TIGIT on cells (human), sequence (Q495A1 22-244): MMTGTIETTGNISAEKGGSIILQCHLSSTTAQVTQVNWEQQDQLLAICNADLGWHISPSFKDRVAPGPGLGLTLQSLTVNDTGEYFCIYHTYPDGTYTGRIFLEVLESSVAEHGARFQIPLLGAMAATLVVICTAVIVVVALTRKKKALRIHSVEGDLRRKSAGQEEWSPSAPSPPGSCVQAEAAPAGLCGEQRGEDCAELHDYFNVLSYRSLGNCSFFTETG
cynomolgus TIGIT-his protein (cynomolgus monkey), sequence (chain, as listed by the source): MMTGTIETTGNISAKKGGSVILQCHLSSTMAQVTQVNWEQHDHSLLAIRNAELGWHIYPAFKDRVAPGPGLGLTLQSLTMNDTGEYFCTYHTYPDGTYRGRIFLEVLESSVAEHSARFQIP
cynomolgus TIGIT on cells (cynomolgus monkey), sequence (chain, as listed by the source): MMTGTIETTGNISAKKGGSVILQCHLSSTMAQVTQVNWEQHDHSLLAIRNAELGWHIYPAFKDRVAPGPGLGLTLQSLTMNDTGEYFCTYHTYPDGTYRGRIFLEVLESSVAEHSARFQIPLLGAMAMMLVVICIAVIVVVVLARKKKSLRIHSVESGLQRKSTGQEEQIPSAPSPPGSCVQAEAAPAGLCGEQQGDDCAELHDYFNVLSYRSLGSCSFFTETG
human TIGIT-his protein (human), sequence (Q495A1 22-141): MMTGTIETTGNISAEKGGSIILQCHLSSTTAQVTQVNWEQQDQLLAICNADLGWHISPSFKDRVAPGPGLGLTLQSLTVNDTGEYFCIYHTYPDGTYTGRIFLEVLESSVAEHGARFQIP

Tiragolumab (antibody): the results for the EC50 in test [1], in test [2] and in test [6] were 1.35 nM, 4.18 nM and 0.274 nM, respectively. Moreover, the Kd in test [3] turned out to be 3.5 nM; in test [4], 0.87 nM. Also, in test [5], the IC50 is 0.63 nM.

One may read the EC50 as the concentration needed to bring the measured effect to its halfway point. Broadly, the Kd is a measure of binding affinity in units of concentration. A higher Kd goes with weaker binding. Usually IC50 stands for the concentration needed to halve the response being measured.

(Values after patent US20240352118A1.)
